According to publication PMC3783652 (ACS chemical biology, 2013):
Each block holds one binder with its values, some of them ahead of it.

Legend:
[1] = molecular target: wild type CXCL12 (stromal cell-derived factor-1/SDF-1) (UniProt P48061 22-93); assay: NMR titration
[2] = molecular target: CXCL12_(1), constitutively monomeric CXCL12 variant (L55C/I58C) (UniProt P48061 22-93, L55C | I58C); assay: NMR titration

B1: 4ISIsYTSD10, sTyr7 sulfopeptide of CXCR4 (peptide)
peptide: ISIYTSD
HELM: PEPTIDE1{[ac].I.S.I.[O=C([C@H](Cc1ccc(OS(=O)(=O)O)cc1)N[*:1])[*:2]].T.S.D.[am]}$$$$V2.0
SMILES: CC[C@H](C)[C@H](NC(C)=O)C(=O)N[C@@H](CO)C(=O)N[C@H](C(=O)N[C@@H](Cc1ccc(OS(=O)(=O)O)cc1)C(=O)N[C@H](C(=O)N[C@@H](CO)C(=O)N[C@@H](CC(=O)O)C(N)=O)[C@@H](C)O)[C@@H](C)CC
- Kd [1]: 4300 µM
- Kd [2]: 6100 µM

B2: 4ISIYTSD10, unsulfated Tyr7 peptide of CXCR4 (peptide)
peptide: Ac-ISIYTSD-NH2
- Kd [1]: 1900 µM
- Kd [2]: 1100 µM

B4: 9SDNYTEE15, unsulfated Tyr12 peptide of CXCR4 (peptide)
peptide: Ac-SDNYTEE-NH2
- Kd [1]: 2100 µM
- Kd [2]: 2700 µM

B5: 18SGDYDSM24, unsulfated Tyr21 peptide of CXCR4 (peptide)
peptide: Ac-SGDYDSM-NH2
- Kd [1]: 2700 µM
- Kd [2]: 1500 µM

These reach a lower Kd [1]. Values come first.

- Kd [1]: 1000 µM
- Kd [2]: 1800 µM
B3: 9SDNsYTEE15, sTyr12 sulfopeptide of CXCR4 (peptide)
peptide: SDNYTEE
HELM: PEPTIDE1{[ac].S.D.N.[O=C([C@H](Cc1ccc(OS(=O)(=O)O)cc1)N[*:1])[*:2]].T.E.E.[am]}$$$$V2.0
SMILES: CC(=O)N[C@@H](CO)C(=O)N[C@@H](CC(=O)O)C(=O)N[C@@H](CC(N)=O)C(=O)N[C@@H](Cc1ccc(OS(=O)(=O)O)cc1)C(=O)N[C@H](C(=O)N[C@@H](CCC(=O)O)C(=O)N[C@@H](CCC(=O)O)C(N)=O)[C@@H](C)O

- Kd [1]: 1800 µM
- Kd [2]: 1600 µM
B6: 18SGDsYDSM24, sTyr21 sulfopeptide of CXCR4 (peptide)
peptide: SGDYDSM
HELM: PEPTIDE1{[ac].S.G.D.[O=C([C@H](Cc1ccc(OS(=O)(=O)O)cc1)N[*:1])[*:2]].D.S.M.[am]}$$$$V2.0
SMILES: CSCC[C@H](NC(=O)[C@H](CO)NC(=O)[C@H](CC(=O)O)NC(=O)[C@H](Cc1ccc(OS(=O)(=O)O)cc1)NC(=O)[C@H](CC(=O)O)NC(=O)CNC(=O)[C@H](CO)NC(C)=O)C(N)=O
